T1: EcAIII α subunit (∼20 kDa) (Escherichia coli, UniProt P37595 1-178)
T1 construct: EcAIII of Escherichia coli, α subunit: cut product of the precursor up to the scissile bond Gly178-Thr179; the linker is partly degraded, residues 158-178 are not visible in the structures; also called subunit α; source: E. coli BL21 Gold, purified (DEAE-Sepharose, SEC); formed by autocleavage of the precursor
T1 sequence (looked up): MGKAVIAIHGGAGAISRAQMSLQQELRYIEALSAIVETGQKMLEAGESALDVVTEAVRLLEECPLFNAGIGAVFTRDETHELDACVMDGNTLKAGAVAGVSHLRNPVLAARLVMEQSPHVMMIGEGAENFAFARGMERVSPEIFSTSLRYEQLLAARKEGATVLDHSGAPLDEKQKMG


Biological target: the molecule itself
Test: SEC; SEC profiles of Supplementary Fig. S4; before biophysical measurements proteins were run on Superdex 75 10/300 GL in 20 mM phosphate buffer pH 7.5
Settings: not given

Binder | binding result
EcAIII variant RDM1-43, unprocessed immature precursor (enzyme, Escherichia coli, UniProt P37595 1-321, looked up, EcAIII of Escherichia coli, uncleaved immature precursor (α and β on one chain, linker intact), with the substitutions of RDM1-43 (Ser211 kept); No ability to process into α/β subunits; EcAIII gene in pET-11d; source: E. coli BL21 Gold, purified (DEAE-Sepharose, SEC)) MGKAVIAIHGGAGAISRAQMSLQQELRYIEALSAIVETGQKMLEAGESALDVVTEAVRLLEECPLFNAGIGAVFTRDETHELDACVMDGNTLKAGAVAGVSHLRNPVLAARLVMEQSPHVMMIGEGAENFAFARGMERVSPEIFSTSLRYEQLLAARKEGATVLDHSGAPLDEKQKMGTVGAVALDLDGNLAAATSTGGMTNKLPVGVGSSPLVGAGCYANNASVAVSCTGTGEVFIRALAAYDIAALMDYGGLSLAEACERVVMEKLPALGGSGGLIAIDHEGNVALPFNTEGMYRAWGYAGDTPTTGIYREKGDTVATQ | binds
EcAIII variant RDM1-46, unprocessed immature precursor (enzyme, Escherichia coli, UniProt P37595 1-321, looked up, EcAIII of Escherichia coli, uncleaved immature precursor (α and β on one chain, linker intact), with the substitutions of RDM1-46 (Ser211 kept); No ability to process into α/β subunits; EcAIII gene in pET-11d; source: E. coli BL21 Gold, purified (DEAE-Sepharose, SEC)) MGKAVIAIHGGAGAISRAQMSLQQELRYIEALSAIVETGQKMLEAGESALDVVTEAVRLLEECPLFNAGIGAVFTRDETHELDACVMDGNTLKAGAVAGVSHLRNPVLAARLVMEQSPHVMMIGEGAENFAFARGMERVSPEIFSTSLRYEQLLAARKEGATVLDHSGAPLDEKQKMGTVGAVALDLDGNLAAATSTGGMTNKLPLDVGLSPLVGAGCYANNASVAVSCTGTGEVFIRALAAYDIAALMDYGGLSLAEACERVVMEKLPALGGSGGLIAIDHEGNVALPFNTEGMYRAWGYAGDTPTTGIYREKGDTVATQ | binds

Biological target: T1, EcAIII α subunit (∼20 kDa)
Test: crystal structure; hanging-drop vapor diffusion at 20°C; 20–30% PEG 4000 or PEG 6000, 0.2 M MgCl2, 100 mM Tris–HCl pH 8.5; protein 10–15 mg/ml; space group P212121
Settings: both partners purified

binding result | Binder
binds | EcAIII β subunit (∼15 kDa), wild type (domain or fragment, Escherichia coli, UniProt P37595 179-321, looked up, EcAIII of Escherichia coli, β subunit: cut product of the precursor beginning at the nucleophilic Thr179; also called subunit β; source: E. coli BL21 Gold, purified (DEAE-Sepharose, SEC); formed by autocleavage of the precursor) TVGAVALDLDGNLAAATSTGGMTNKLPGRVGDSPLVGAGCYANNASVAVSCTGTGEVFIRALAAYDIAALMDYGGLSLAEACERVVMEKLPALGGSGGLIAIDHEGNVALPFNTEGMYRAWGYAGDTPTTGIYREKGDTVATQ
binds | EcAIII β subunit of variant RDM1-18 (domain or fragment, Escherichia coli, UniProt P37595 179-321, looked up, also called RDM1-18 β subunit; source: E. coli BL21 Gold, purified (DEAE-Sepharose, SEC); formed by autocleavage of the precursor) TVGAVALDLDGNLAAATSTGGMTNKLPGVVGPWPLVGAGCYANNASVAVSCTGTGEVFIRALAAYDIAALMDYGGLSLAEACERVVMEKLPALGGSGGLIAIDHEGNVALPFNTEGMYRAWGYAGDTPTTGIYREKGDTVATQ
binds | EcAIII β subunit of variant RDM1-24 (domain or fragment, Escherichia coli, UniProt P37595 179-321, looked up, EcAIII of Escherichia coli, β subunit beginning at Thr179, with the substitutions of RDM1-24; also called RDM1-24 β subunit; source: E. coli BL21 Gold, purified (DEAE-Sepharose, SEC); formed by autocleavage of the precursor) TVGAVALDLDGNLAAATSTGGMTNKLPGAVGSTPLVGAGCYANNASVAVSCTGTGEVFIRALAAYDIAALMDYGGLSLAEACERVVMEKLPALGGSGGLIAIDHEGNVALPFNTEGMYRAWGYAGDTPTTGIYREKGDTVATQ
binds | EcAIII β subunit of variant RDM1-29 (domain or fragment, Escherichia coli, UniProt P37595 179-321, looked up, EcAIII of Escherichia coli, β subunit beginning at Thr179, with the substitutions of RDM1-29; also called RDM1-29 β subunit; source: E. coli BL21 Gold, purified (DEAE-Sepharose, SEC); formed by autocleavage of the precursor) TVGAVALDLDGNLAAATSTGGMTNKLPCSVGLVPLVGAGCYANNASVAVSCTGTGEVFIRALAAYDIAALMDYGGLSLAEACERVVMEKLPALGGSGGLIAIDHEGNVALPFNTEGMYRAWGYAGDTPTTGIYREKGDTVATQ
binds | EcAIII β subunit of variant RDM1-38 (domain or fragment, Escherichia coli, UniProt P37595 179-321, looked up, EcAIII of Escherichia coli, β subunit beginning at Thr179, with the substitutions of RDM1-38; also called RDM1-38 β subunit; source: E. coli BL21 Gold, purified (DEAE-Sepharose, SEC); formed by autocleavage of the precursor) TVGAVALDLDGNLAAATSTGGMTNKLPGCVGSVPLVGAGCYANNASVAVSCTGTGEVFIRALAAYDIAALMDYGGLSLAEACERVVMEKLPALGGSGGLIAIDHEGNVALPFNTEGMYRAWGYAGDTPTTGIYREKGDTVATQ
binds | EcAIII β subunit of variant RDM1-37 (domain or fragment, Escherichia coli, UniProt P37595 179-321, looked up, EcAIII of Escherichia coli, β subunit beginning at Thr179, with the substitutions of RDM1-37 (Ser211 kept); also called RDM1-37 β subunit; source: E. coli BL21 Gold, purified (DEAE-Sepharose, SEC); formed by autocleavage of the precursor) TVGAVALDLDGNLAAATSTGGMTNKLPSTVGSSPLVGAGCYANNASVAVSCTGTGEVFIRALAAYDIAALMDYGGLSLAEACERVVMEKLPALGGSGGLIAIDHEGNVALPFNTEGMYRAWGYAGDTPTTGIYREKGDTVATQ
binds | EcAIII β subunit of variant RDM1-12 (domain or fragment, Escherichia coli, UniProt P37595 179-321, looked up, EcAIII of Escherichia coli, β subunit beginning at Thr179, with the substitutions of RDM1-12; also called RDM1-12 β subunit; source: E. coli BL21 Gold, purified (DEAE-Sepharose, SEC); formed by autocleavage of the precursor) TVGAVALDLDGNLAAATSTGGMTNKLPCTVGAAPLVGAGCYANNASVAVSCTGTGEVFIRALAAYDIAALMDYGGLSLAEACERVVMEKLPALGGSGGLIAIDHEGNVALPFNTEGMYRAWGYAGDTPTTGIYREKGDTVATQ

Reference: paper PMC9248843, “Structural and biophysical studies of new L-asparaginase variants: lessons from random mutagenesis of the prototypic Escherichia coli Ntn-amidohydrolase” (Acta Crystallographica. Section D, Structural Biology, 2022)
